Test results from patent publication US20250011363A1, “OPTIMIZED SHORTENED PEPTIDE THAT BINDS TO ACETYLCHOLINE RECEPTOR, AND USE THEREOF” (SKINMED CO., LTD., priority 2021, published 2025).

Target: acetylcholine receptor
Experiment: SPR, AchR immobilized on CM5 chip, peptide at 10 µM

| Binder | Binding affinity (RU) |
| --- | --- |
| KLLQR [5mer-106] | 78 |
| KWQLK [5mer-108] | 77 |
| KRRLK [5mer-110] | 76 |
| KRYYR [5mer-112] | 58 |
| RVICK [5mer-118] | 87 |
| RWRSK [5mer-116] | 64 |
| RLQCR [5mer-109] | 68 |
| KRLRK [5mer-113] | 79 |
| KSVLK [5mer-111] | 85 |
| RSVYK [5mer-117] | 69 |
| RWVSR [5mer-107] | 56 |
| RWLLR [5mer-115] | 75 |
| KRQRR [5mer-114] | 82 |
| RGQQR [5mer-105] | 50 |

The remaining lines, values ahead:

| Binding affinity (RU) | Binder |
| --- | --- |
| 83 | KGYLK [5mer-404] |
| 81 | RGRSR [5mer-412] |
| 53 | RWRTR [5mer-418] |
| 56 | RWLTR [5mer-413] |
| 71 | KVRCK [5mer-414] |
| 62 | KQIYK [5mer-409] |
| 74 | KVFRK [5mer-408] |
| 68 | KSYTK [5mer-405] |
| 67 | KLYLR [5mer-416] |
| 76 | RRFLR [5mer-410] |
| 65 | KWLQK [5mer-417] |
| 67 | RVYTR [5mer-419] |
| 58 | RQIYK [5mer-407] |
| 66 | KGRLR [5mer-411] |
| 77 | KVFLR [5mer-415] |
| 60 | KQIRK [5mer-119] |
| 84 | KVYLR [5mer-406] |
